Assay results: PMC3326311 (Nucleic Acids Research, 2011)

B1: HerA helicase (Sulfolobus solfataricus), untagged (enzyme, Sulfolobus solfataricus P2, UniProt Q97WG8 1-500, looked up)
chain: MIIGYVIGQATTQEALILAERPVRLGTYVVLEYDNVKALGLITNVTRGSPMLDDNMNDIEIVQRLKQFNNSIPVYTKAKVKMLCDMNNHFLMPDIPPFAGTPAREAEDEELKSIYSQDGQIRIGSLIGKNVEVKLNINSFARHLAILAATGSGKSNTVAVLSQRISELGGSVLIFDYHGEYYDSDIKNLNRIEPKLNPLYMTPREFSTLLEIRENAIIQYRILRRAFIKVTNGIREKLKEGQIPFSTLNSQFYELMKDELETQGNSDKKSSAKDEVLNKFEEFMDRYSNVIDLTSSDIIEKVKRGKVNVVSLTQLDEDSMDAVVSHYLRRILDSRKDFKRSKNSGLKFPIIAVIEEAHVFLSKNENTLTKYWASRIAREGRKFGVGLTIVSQRPKGLDENILSQMTNKIILKIIEPTDKKYILESSDNLSEDLAEQLSSLDVGEAIIIGKIVKLPAVVKIDMFEGKLLGSDPDMIGEWKKVEESEKIAKGFADFGTEIGD

Assays:
[1] = target: the molecule itself; assay: SEC
[2] = target: the molecule itself; assay: crystal structure
[3] = target: B1; assay: SEC

| Binder | stoichiometry N [1] | further results |
| --- | --- | --- |
| B1 | 6 |  |
| NurA nuclease (Sulfolobus solfataricus), untagged (enzyme, Sulfolobus solfataricus P2) MIRKIYDKLVESHNEIKNQIYNIANYLKQEIQDKVNEYWNEYVINHEQSETCKFVAIDGGSFGRPMRIGIVYAVGAESVIGDNKGVKTLSEDGQIGIFKPGNDAQERISLLMEALELSLALRDGSKGDYILMDGSLSKKIGNKVDIQQFSDEELKLIRNVDLNGIISIKDERKMRDLLMLLNQFLVSKIIEEYDGNVLWISKVSRGRDLFGTDYPDITVLELFTEKRGFSKLIIKNIDIEKISEIPEIEVLRKMEYTTFYTRLDNGKRVIRVDIVGRVDEKIVKEIMDRLSGVSIKGYPFPLLKAHMDVRFSAMDREKIIKLVGSKLHKDIEWWPSQFY |  | stoichiometry N [2]: 2 |
| NurA I295E (enzyme, Sulfolobus solfataricus P2) MIRKIYDKLVESHNEIKNQIYNIANYLKQEIQDKVNEYWNEYVINHEQSETCKFVAIDGGSFGRPMRIGIVYAVGAESVIGDNKGVKTLSEDGQIGIFKPGNDAQERISLLMEALELSLALRDGSKGDYILMDGSLSKKIGNKVDIQQFSDEELKLIRNVDLNGIISIKDERKMRDLLMLLNQFLVSKIIEEYDGNVLWISKVSRGRDLFGTDYPDITVLELFTEKRGFSKLIIKNIDIEKISEIPEIEVLRKMEYTTFYTRLDNGKRVIRVDIVGRVDEKIVKEIMDRLSGVSEKGYPFPLLKAHMDVRFSAMDREKIIKLVGSKLHKDIEWWPSQFY | 2 |  |
| NurA I295E/F300E double mutant (enzyme, Sulfolobus solfataricus P2) MIRKIYDKLVESHNEIKNQIYNIANYLKQEIQDKVNEYWNEYVINHEQSETCKFVAIDGGSFGRPMRIGIVYAVGAESVIGDNKGVKTLSEDGQIGIFKPGNDAQERISLLMEALELSLALRDGSKGDYILMDGSLSKKIGNKVDIQQFSDEELKLIRNVDLNGIISIKDERKMRDLLMLLNQFLVSKIIEEYDGNVLWISKVSRGRDLFGTDYPDITVLELFTEKRGFSKLIIKNIDIEKISEIPEIEVLRKMEYTTFYTRLDNGKRVIRVDIVGRVDEKIVKEIMDRLSGVSEKGYPEPLLKAHMDVRFSAMDREKIIKLVGSKLHKDIEWWPSQFY | 2 |  |
| NurA K202A (enzyme, Sulfolobus solfataricus P2) MIRKIYDKLVESHNEIKNQIYNIANYLKQEIQDKVNEYWNEYVINHEQSETCKFVAIDGGSFGRPMRIGIVYAVGAESVIGDNKGVKTLSEDGQIGIFKPGNDAQERISLLMEALELSLALRDGSKGDYILMDGSLSKKIGNKVDIQQFSDEELKLIRNVDLNGIISIKDERKMRDLLMLLNQFLVSKIIEEYDGNVLWISAVSRGRDLFGTDYPDITVLELFTEKRGFSKLIIKNIDIEKISEIPEIEVLRKMEYTTFYTRLDNGKRVIRVDIVGRVDEKIVKEIMDRLSGVSIKGYPFPLLKAHMDVRFSAMDREKIIKLVGSKLHKDIEWWPSQFY |  | binding result [3]: binds |
| NurA F300E (enzyme, Sulfolobus solfataricus P2) MIRKIYDKLVESHNEIKNQIYNIANYLKQEIQDKVNEYWNEYVINHEQSETCKFVAIDGGSFGRPMRIGIVYAVGAESVIGDNKGVKTLSEDGQIGIFKPGNDAQERISLLMEALELSLALRDGSKGDYILMDGSLSKKIGNKVDIQQFSDEELKLIRNVDLNGIISIKDERKMRDLLMLLNQFLVSKIIEEYDGNVLWISKVSRGRDLFGTDYPDITVLELFTEKRGFSKLIIKNIDIEKISEIPEIEVLRKMEYTTFYTRLDNGKRVIRVDIVGRVDEKIVKEIMDRLSGVSIKGYPEPLLKAHMDVRFSAMDREKIIKLVGSKLHKDIEWWPSQFY | 2 |  |
